In patent US20230056470A1, “USES OF ANTI-TGF-BETA ANTIBODIES AND CHECKPOINT INHIBITORS FOR THE TREATMENT OF PROLIFERATIVE DISEASES” (NOVARTIS AG, priority 2019, published 2023):

Tests used:
[1] = Clinical PK of PDR001 in combination with NIS793, study CNIS793X2101; format: in vivo, human; conditions: 100 or 300 mg Q3W and 400 mg Q4W
[2] = Clinical PK of NIS793, study CNIS793X2101 (single agent and combination with PDR001; escalation and expansion; cycles 1 and 3); format: in vivo, human
[3] = Population PK analysis and model-based simulations of NIS793 (dose escalation phase of CNIS793X2101); parameters: species or system human
Protocol: This is consistent with the observation that NIS793 PK appears dose proportional and time-independent based on the non-compartmental analyses.
Further a dose of 1400 mg would also match exposure observed at 20 mg/kg.

[4] = Mean, cycle 1, NIS793 0.3 mg/kg Q3W + PDR 100 mg Q3W, escalation
[5] = Mean, cycle 1, NIS793 0.3 mg/kg Q3W + PDR 300 mg Q3W, escalation
[6] = Mean, cycle 1, NIS793 0.3 mg/kg Q3W Liquid, single agent, escalation
[7] = Mean, cycle 1, NIS793 1 mg/kg Q3W + PDR 300 mg Q3W, escalation
[8] = Mean, cycle 1, NIS793 1 mg/kg Q3W Liquid, single agent, escalation
[9] = Mean, cycle 1, NIS793 1 mg/kg Q3W Lyophilisate, single agent, escalation
[10] = Mean, cycle 1, NIS793 3 mg/kg Q3W + PDR 300 mg Q3W, escalation
[11] = Mean, cycle 1, NIS793 10 mg/kg Q3W + PDR 300 mg Q3W, escalation
[12] = Mean, cycle 1, NIS793 20 mg/kg Q2W + PDR 400 mg Q4W, escalation
[13] = Mean, cycle 1, NIS793 30 mg/kg Q2W + PDR 400 mg Q4W, escalation
[14] = Mean, cycle 1, NIS793 30 mg/kg Q3W + PDR 300 mg Q3W, escalation
[15] = cycle 1, NIS793 2100 mg Q3W + PDR 300 mg Q3W, MSS-CRC, expansion, mean
[16] = cycle 1, NIS793 2100 mg Q3W + PDR 300 mg Q3W, NSCLC, expansion, mean
[17] = cycle 3, NIS793 0.3 mg/kg Q3W + PDR 100 mg Q3W, escalation, mean
[18] = cycle 3, NIS793 0.3 mg/kg Q3W + PDR 300 mg Q3W, escalation, mean
[19] = cycle 3, NIS793 0.3 mg/kg Q3W Liquid, single agent, escalation, mean
[20] = cycle 3, NIS793 1 mg/kg Q3W + PDR 300 mg Q3W, escalation, mean
[21] = cycle 3, NIS793 1 mg/kg Q3W Liquid, single agent, escalation, mean
[22] = cycle 3, NIS793 1 mg/kg Q3W Lyophilisate, single agent, escalation, mean
[23] = cycle 3, NIS793 3 mg/kg Q3W + PDR 300 mg Q3W, escalation, mean
[24] = cycle 3, NIS793 10 mg/kg Q3W + PDR 300 mg Q3W, escalation, mean
[25] = cycle 3, NIS793 20 mg/kg Q2W + PDR 400 mg Q4W, escalation, mean
[26] = cycle 3, NIS793 30 mg/kg Q3W + PDR 300 mg Q3W, escalation, mean
[27] = cycle 3, NIS793 2100 mg Q3W + PDR 300 mg Q3W, MSS-CRC, expansion, mean (SD)

PDR001: anti-PD-1 inhibitor spartalizumab, also known as PDR001 (Novartis)
PK of PDR001 in combination with NIS793 versus single agent data [1]: appears to be similar to the single agent data

NIS793: fully human IgG2, human/mouse cross-reactive, TGF-β-neutralizing antibody; heavy and light chain SEQ ID NOs: 9 and 10
Increase in NIS793 exposure (Cycle 1 Cmax and AUClast) with dose ([2]; 30 minute intravenous infusion, 0.3 mg/kg to 30 mg/kg): approximately dose-proportional increase
AUClast [2, 4]: 1360000 ng·h/mL
Clast [2, 4]: 1400 ng/mL
Cmax [2, 4]: 6440 ng/mL
AUClast [2, 5]: 1700000 ng·h/mL
Clast [2, 5]: 1530 ng/mL
Cmax [2, 5]: 11200 ng/mL
AUClast [2, 6]: 1140000 ng·h/mL
Clast [2, 6]: 1060 ng/mL
Cmax [2, 6]: 7180 ng/mL
AUClast [2, 7]: 5850000 ng·h/mL
Clast [2, 7]: 8790 ng/mL
Cmax [2, 7]: 30800 ng/mL
AUClast [2, 8]: 4170000 ng·h/mL
Clast [2, 8]: 4320 ng/mL
Cmax [2, 8]: 24900 ng/mL
AUClast [2, 9]: 4770000 ng·h/mL
Clast [2, 9]: 4780 ng/mL
Cmax [2, 9]: 27600.0 ng/mL
AUClast [2, 10]: 11400000 ng·h/mL
Clast [2, 10]: 14300 ng/mL
Cmax [2, 10]: 58400 ng/mL
AUClast [2, 11]: 3750000 ng·h/mL
Clast [2, 11]: 44800 ng/mL
Cmax [2, 11]: 181000 ng/mL
AUClast [2, 12]: 54500000 ng·h/mL
Clast [2, 12]: 107000 ng/mL
Cmax [2, 12]: 333000 ng/mL
AUClast [2, 13]: 69100000 ng·h/mL
Clast [2, 13]: 154000 ng/mL
Cmax [2, 13]: 439000 ng/mL
AUClast [2, 14]: 90900000 ng·h/mL
Clast [2, 14]: 133000 ng/mL
Cmax [2, 14]: 519000 ng/mL
AUClast [2, 15]: 94700000 ng·h/mL
Clast [2, 15]: 206000 ng/mL
Cmax [2, 15]: 547000 ng/mL
AUClast [2, 16]: 140000000 ng·h/mL
Clast [2, 16]: 180000 ng/mL
Cmax [2, 16]: 743000 ng/mL
AUClast [2, 17]: 2530000 ng·h/mL
Clast [2, 17]: 2960 ng/mL
Cmax [2, 17]: 8990 ng/mL
AUClast [2, 18]: 2960000 ng·h/mL
Clast [2, 18]: 3330 ng/mL
Cmax [2, 18]: 11600 ng/mL
AUClast [2, 19]: 1820000 ng·h/mL
Clast [2, 19]: 1900 ng/mL
Cmax [2, 19]: 8750 ng/mL
AUClast [2, 20]: 5630000 ng·h/mL
Clast [2, 20]: 9710 ng/mL
Cmax [2, 20]: 31300 ng/mL
AUClast [2, 21]: 2910000 ng·h/mL
Clast [2, 21]: 4290 ng/mL
Cmax [2, 21]: 9830 ng/mL
AUClast [2, 22]: 4090000 ng·h/mL
Clast [2, 22]: 6350 ng/mL
Cmax [2, 22]: 13800 ng/mL
AUClast [2, 23]: 13900000 ng·h/mL
Clast [2, 23]: 16100 ng/mL
Cmax [2, 23]: 55200 ng/mL
AUClast [2, 24]: 69200000 ng·h/mL
Clast [2, 24]: 95900 ng/mL
Cmax [2, 24]: 220000 ng/mL
AUClast [2, 25]: 149000000 ng·h/mL
Clast [2, 25]: 154000 ng/mL
Cmax [2, 25]: 524000 ng/mL
AUClast [2, 26]: 242000000 ng·h/mL
Clast [2, 26]: 228000 ng/mL
Cmax [2, 26]: 713000 ng/mL
AUClast [2, 27]: 95500000 (88500000) h*ng/mL
Clast [2, 27]: 341000 (313000) ng/mL
Cmax [2, 27]: 590000 (319000) ng/mL
Between subject variability (CV %) for Cmax ([2]; patients, across dose cohorts): 12.1 to 73.3%
Population PK model that describes NIS793 pharmacokinetics ([3]; dose escalation concentration data): two compartment model with first order elimination from the central compartment
Estimated exponent of body weight as covariate on clearance (power model) ([3]; population PK model, CV %=40%): 0.55
